Test results published in IntAct's records for PubMed 14567693.

B1: Electrogenic sodium bicarbonate cotransporter 1 (Homo sapiens), Q9Y6R1-1 (parent)
chain: MEDEAVLDRGASFLKHVCDEEEVEGHHTIYIGVHVPKSYRRRRRHKRKTGHKEKKEKERISENYSDKSDIENADESSSSILKPLISPAAERIRFILGEEDDSPAPPQLFTELDELLAVDGQEMEWKETARWIKFEEKVEQGGERWSKPHVATLSLHSLFELRTCMEKGSIMLDREASSLPQLVEMIVDHQIETGLLKPELKDKVTYTLLRKHRHQTKKSNLRSLADIGKTVSSASRMFTNPDNGSPAMTHRNLTSSSLNDISDKPEKDQLKNKFMKKLPRDAEASNVLVGEVDFLDTPFIAFVRLQQAVMLGALTEVPVPTRFLFILLGPKGKAKSYHEIGRAIATLMSDEVFHDIAYKAKDRHDLIAGIDEFLDEVIVLPPGEWDPAIRIEPPKSLPSSDKRKNMYSGGENVQMNGDTPHDGGHGGGGHGDCEELQRTGRFCGGLIKDIKRKAPFFASDFYDALNIQALSAILFIYLATVTNAITFGGLLGDATDNMQGVLESFLGTAVSGAIFCLFAGQPLTILSSTGPVLVFERLLFNFSKDNNFDYLEFRLWIGLWSAFLCLILVATDASFLVQYFTRFTEEGFSSLISFIFIYDAFKKMIKLADYYPINSNFKVGYNTLFSCTCVPPDPANISISNDTTLAPEYLPTMSSTDMYHNTTFDWAFLSKKECSKYGGNLVGNNCNFVPDITLMSFILFLGTYTSSMALKKFKTSPYFPTTARKLISDFAIILSILIFCVIDALVGVDTPKLIVPSEFKPTSPNRGWFVPPFGENPWWVCLAAAIPALLVTILIFMDQQITAVIVNRKEHKLKKGAGYHLDLFWVAILMVICSLMALPWYVAATVISIAHIDSLKMETETSAPGEQPKFLGVREQRVTGTLVFILTGLSVFMAPILKFIPMPVLYGVFLYMGVASLNGVQFMDRLKLLLMPLKHQPDFIYLRHVPLRRVHLFTFLQVLCLALLWILKSTVAAIIFPVMILALVAVRKGMDYLFSQHDLSFLDDVIPEKDKKKKEDEKKKKKKKGSLDSDNDDSDCPYSEKVPSIKIPMDIMEQQPFLSDSKPSDRERSPTFLERHTSC
partner: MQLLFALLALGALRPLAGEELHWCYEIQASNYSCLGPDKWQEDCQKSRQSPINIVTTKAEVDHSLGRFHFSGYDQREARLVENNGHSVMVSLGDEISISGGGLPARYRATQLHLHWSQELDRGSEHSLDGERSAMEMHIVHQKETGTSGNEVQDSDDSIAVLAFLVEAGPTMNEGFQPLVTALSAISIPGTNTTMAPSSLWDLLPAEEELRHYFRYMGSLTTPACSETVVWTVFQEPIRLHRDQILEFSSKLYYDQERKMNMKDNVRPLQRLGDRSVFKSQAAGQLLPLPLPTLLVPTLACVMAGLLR

Variants of: B1
Conditions: with cah4_rabit CA4, P48283

Variant | effect of a mutation on the interaction
G767T | disrupting interaction
